The nature of the data set: label from the status in PepcDB records.

For “MPEITLKVDSAYPEDQGNGKARLDPSAMQALNVSPGDLVRITGKTSTVAKVWRSFESDWNMEKIRIDKYTRANASVNPGDRVTVEKVEEEIPATSVTLVSPSEISAAFPDEEDDYLISLINFPVSLDDIIPIKTFHPGPPLEFKVSAIEPENACILNKMTELVFNDDDEFDGTKAITYEDIGGLKGELKRVREMIELPIRHPELFETMGIEPPKGVLLYGPPGTGKTLIAKAVANESGAHFISIAGPEIISKYYGESEQKLREIFEEAEEEAPSIIFIDELDSIAPKREDVNGEVERRVVAQLLTMLDGITDRGQVIVIGATNRPDAIDPALRRPGRFDREIEIGVPAEADRMEILQIHTKDMPFEGMAKLKELRSSEPSETVLEKALADYEASRDKLLWMLASQAKGFVGADLAALAREAAIRALRRQIDVADIDNEKIPEEVLRKLEVTTSDFILASREVAPSAMREIALETADVSWTDIGGSRDAVRDVRESVEFPLTRKEVFAQLGIRPPKGVLLYGPPGTGKTMIAKAVAHESGANFIAVKGPELLSKWVGESEKAVRDIFKKARQVAPAIIFFDELDSLTPSRGASDGSRTTENVLNQILTEMDGIEELNDVMILAASNRPDIIDPALLRSGRFDRLVYISEPEEADRKEILAVHMQNMPIEGSSFDEAVKEVSGLNEASLESLGAKFSGKSVTIKQIKTAAGKYTKGTPLSLIEERRRLAAVLRQHAVTLSDPEKTKLIRQLAEDTAGYVGSDLEGLCREAAMHALRNQANVVTADDFAEARKKIHPTMNERVREYYISISQRFKGGLPKEAQNLIEYQ”, the protein production result is listed as “failed”.
As to “MPEPHAVLYVTNELSHIVKNEFLPIWKLTGDESLNDLWLENGKYATDVYAYGDVSKWTIRQLRGHGFIFISTHKNVQLADIIKTVDVRVPREVARSHDMKAFENEIGRRRIRMRKGFGDALRNYAFKMAIEFHGSEAETLNDANPRLHKIYGMPEIPPLYMEYAEIGTRFDDEPTDEKLVSMLHYIVYSAEEVHYIGCGDLRTLMQFKKRSPGRFRRVLWHVYDPIAPECSDPNVIVHNIMVDSKKDILKHMNFLKRVERPFIWDVSSDRSQMNDHEWETTRFAEDRLGEEIAYEMGGAFSSALIKHRIPNSKDEYHCISTYLFPQPGADADMYELRNFMRLRGYSHVDRHMHPDASVTKVVSRDVRKMVELYHGRDCGSFLKKRLFEHLHIVRKNGLLHESDEPRADLFYLTNRCNMGLEPSIYEVMKKSVIATAWVGRAPLYDYDDFALPRSTVMLNGSYRDIRILDGNGAILFLMWRYPDIVKKDLTYDPAWAMNFAVSLKEPIPDPPVPDISLCRFIGLRVESSVLRVRNPTLHETADELKRMGLDLSGHLYVTLMSGAYVTDLFWWFKMILDWSAQNREQKLRDLKRSAAEVIEWKEQMAERPWHVRNDLIAALREYKRKMGMREGASIDSWLELLRHL”, the protein production result is “not failed”.
To “MPERVKRKRYALVGTGNRGTTMWGRELLAGWSDYVELVGICDLNLMRAERARAMMGSNAPLYDDFDRMMVEQRPELVIVCTPDDTHDDIIIRALEGGADVISEKPMTTTPEKIDRIRAAEAKSGRRVDVSFNYRFSPTAARIKELIDDGAIGTVTSVDFHWYLDNQHGADYFRRWHAFTEHSGSLFVHKATHHFDLLNWYLDSDPVEVKGFGQLLHYGKNGPFRGTRCRTCPHKDECDYFMDLGADPFLDALYEDPSSIDGYMRDACVFREEIDIPDTMSASIRYASGVQVSYSLNTYMPIEGHHIAFNGHKGRIEMRQYEKQPWAEPPADEILVVKSFGGGVERIWVPHEPGGHYGGDNRMRDMIFKPGSNDRLRQRAGSRAGAMSVLCGVAALKSARDGGSQPIKSLPL” belongs “failed”; to “MPESYWEKVSGKNIPSSLDLYPIIHNYLQEDDEILDIGCGSGKISLELASKGYSVTGIDINSEAIRLAETAARSPGLNQKTGGKAEFKVENASSLSFHDSSFDFAVMQAFLTSVPDPKERSRIIKEVFRVLKPGAYLYLVEFGQNWHLKLYRKRYLHDFPITKEEGSFLARDPETGETEFIAHHFTEKELVFLLTDCRFEIDYFRVKELETRTGNKILGFVIIAQKLLEHHHHHH”, “not failed”; to “MPEVVFYPQNKSINVEEGTTILQAARSAGVIIESPCNGTGTCGKCKVRLDEKSLPNVLAKSRHYLSKEEEEQGYVLACETQITGDIKVELGENKQNGTLKILSRGHSFNIDLKPFIRKEYFVHEDVTKVFAGKEQLGIEAGDTTKENYGAVVDIGTTTLVASIVNLNNGDEIGTSSALNPQAVHAQDVLSRIKFSSDADGLKVMHSELTDKINSMIGKIALRAGISKEHIYEIVFSGNTCMLHLASNTCPESLGKYPYTPKISGAAYLDAAKYNIDISPFGIIYLPPIISAYVGADIVSGILASQLHEKDGVILFVDIGTNGEMVLASCGNLSATSTAAGPAFEGMNITCGMRAGEAAIEFFEIEEQGSINIKVIGETEAAGICGSGLLDMVGEFAAHGVIKKNGQFIDPESENVLHPKLAERLVRQDGKWIFKVTDKVFLSQKDIRQVQLAKGAVRAGIEFLLENKGVRASDVDKVLIAGSFGYHLREKSLINIGLLPKEFEGKVEFVGNTSLSGAKAFLLNQTYREKMKETVKSVEVLELANYKDFDRVFVRCLSFLEHHHHHH”, “failed”.
Turning to “MPFSKNLENLTAPFKRIKNRSLVLALGFLILTFCLLLFLILSDVSRLISGKDFFYVIQSHPKQTLIEDENYFYANKGLYKTNKEAFLRVYKIPESMPIERRENLSKVSKIFLALLFFISSMLFGIFWRLPKRLDTKMSLESAHKNELENAFQRYDALGVRFEDIAGVDEVKEELLEVIDYLKNPKKYQDLGIFLPKGVLLIGPPGVGKTMIAKALASEARVPFFYESGSAFSQIYVGAGAKKVHELFMHAKRHAPSIIFIDEIDALGKARGGHRSDEREATLNQLLTEMDGFLQNDEVVVIGATNQMEVMDEALLRSKRFDRRIFISLPDLLERQSILEKLLENKKHALNYLKIAKICVGFSGAMLATLINESALNALKHQRTEIAESDILEVKDKIAYGKKKPQTLDENQKELVALYQSAKALSAYWLEIEFDKAPILGEFIAFNENKIHSESEIKNYIKVYLSGTIILELLYKERYSLSKQDLQKAKFLNEFMASELLLAPTKESLSVLYEEQLEFLKPQIAACKRLSVLLLEQEYLEHSNLYDLLNG”, the protein production entry is recorded as “failed”.
For “MPGAMHDEPDHPELSITVPTLNEAEGLERFFAMLSAQQGVRFELVIADGGSTDGTPESARRLAAATPFAATVIETGRGRGRQMNAGAAAAAGDTLLFLHADCAFPDPLALRTALDAFTQTVAAGGSHRVAGHFRLRFERTDSAPSLPYYFYEWKARLHRPGCTHGDQGLLLGRRFFAEAGPFDESFPILEDVGLAERIAALGEWLLLPAEIVTSARRFEAEGLRERQTLNALLMNFAAMGWDPFLAELPRLYQSQDRAGRLLLGPVLRLIARLLRPLPRRERGRLWRETGRYVRANAWQIPFFLDVRRHFRQGTPVGEGETPRLDLHDRIFDRLTENGAGHRATALLVWIWFRLSLLREPLTPPAARNPEGNGSLEHHHHHH”, the protein production entry is on record as “not failed”.
As for “MPGFNYGGDQDEVYTPYRRVLVTGATGLLGRAVYKEFKNNDWDALGCGYNRARPFFLKCNLLDEDAVRGVIQSFQPHVIVHCAAERRPDVVERHTEAAMNLNVHACATLAKEAGGSFLIYISTDYVFDGRNPPYGENDAPNPLNLYGKSKLEGEREILRHCPGAAVLRVPILFGEVEKVEESAVTVLFERVQEGAESCTIDHCQQRFPTYTNDVARVCRNMAERALQDQSLRGIFHYSAKEQMTKYEMTCAIADAFNLPSSHLIPMTEQPAGAGAQRPQNAQLECSRLELLGLSVESTPFKNAIRDSLWPFQHDKRWRQTVFH”, the protein production result is “not failed”.
Consider “MPGIDFDALYRGESPGEGLPPITTPPWDTKAPKDNVIGWHTGGWVHGDVLDIGCGLGDNAIYLARNGYQVTGLDISPTALTTAKRRASDAGVDVKFAVGDATKLTGYTGAFDTVIDCGMFHCLDDDGKRSYAASVHRATRPGATLLLSCFSNAMPPDEEWPRSTVSEQTLRDVLGGAGWDIESLEPATVRRELDGTEVEMAFWNVRAQRRGS”, for which the protein production result was “failed”.

For the origin of these results see a protein production outcome set (Wang et al. 2014).
